The supplement of paper PMC9170038

Tested on: MS2 coat protein
Test: apparent KD of MS2 coat protein; higher = weaker reporter binding
Conditions: Eterna round: R107
Summary of the method: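 Apparent KD is reported per design as the median of normalised binding-curve fits across its clusters. The RNA switches were made by on-chip transcription from Illumina sequencing clusters. SNAP-549-labelled MS2 coat protein was then added in twofold steps (0.7 or 1.5 nM to 3 µM; 0.8–1.5 h to 10–20 min per step) in 100 mM Tris-HCl pH 7.5, 80 mM KCl, 4 mM MgCl2, without or with constant ligand.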

[1] = input ligand: theophylline 20 uM
[2] = input ligand: tryptophan 2.4 mM
[3] = input ligand: theophylline 2 mM

Sequence	apparent KD of MS2 coat protein (input ligand: arginine 13.2 mM) [nM]	apparent KD of MS2 coat protein [1] [nM]	apparent KD of MS2 coat protein [2] [nM]	apparent KD of MS2 coat protein (input ligand: none) [nM]	apparent KD of MS2 coat protein [3] [nM]
GAUGCACAUGAGGAUCACCCAUGUCCUGAUACCAGAACGCGACUUUUCCCUUGGCAGCAGAAUUCACUUUUUUACAUUCAUACUG [theeternabot_sameState_MS2_Theo_A_11]	22.7	30.6	27	–	–
AAUAACAUGAGGAUCACCCAUGUAAAAGAUACCAGAGUGAUGAUCCUCCCUUGGCAGCUUAAAACGCUAUUGAUUACAAUAGCGA [Mat - Same State Theophlline A - Mod of Eli - D4]	38.3	99	45.3	–	–
UUGUUGUUUGGAAGGAGCGUGGAUGAGUGAGAACAUGAGGAUCACCCAUGUUGUAUGAUACCGCAGGUAGGUCGCCGGGUGGUGG [11.aB]	16.9	39.6	17.5	18.1	21.5
AAAUAAACCUCGGCCGCCACUCGCCAUGAGGAUCACCCAUGUAACAUGAGGAUCACCCAUGUACAGAGGACCGGGAGGUCCUAGU [Same State Tryptophan B GF 13]	48.3	68.9	–	–	87.1
AAGACUGGACAUAAGUCCAGUCAACCUGAAGGAGCGGGUGGGUGCCCAGGUAGGUCGCGGGAACAUGAGGAUCACCCAUGUAUAA [ArgAS 5 #BothOrNeither #OpenEnded]	17.4	16.9	24.6	25.8	31.9
UGCAUUAUACAUGGAUCACCCAUGUAGACACGAGGACCGGUACGGCCGCCACUCGGAAGAGGGAACAUGAGGAUCACCCAUGUGA [Try A SS t1]	25.6	73.1	–	–	55
AGAUUCGACACGGCCGCCACUCGUGACGGAUUUCCGAGUGUCGAACAUGAGGAUCACCCAUGUCCGAGGACCGGGUGUUGAGUCU [XTryp B #12]	33.7	43.8	–	–	55.9
AAUACCGGUCCUCGAGGGUGAUCCUCAUGACGAGGACCGGUACGGCCGCCACUCGAUAACAUGAGGAUCACCCAUGUAAUCGAGU [|T'-M'-Trp-Ms2|_Design7b]	34.1	70.4	–	–	72.4
GAGACGUCGGGAAGGAGCGCAUCCAAACCACACAUGAGGAUCACCCAUGUAUAAAUAUGCAUGCAGGUAGGUCGCCCGGUGUCCA [Xegeisge]	49.9	120	86.1	85.7	114
CUACAUUUGUAGAAACCGGUCAACAAUAAUCGAGGACCGGUACGGCCGCCACUCGUAUAAUUUUAUACAUGAGGAUCACCCAUGU [Tryptophan A 3]	13.7	16.5	–	–	16.5
ACGACGCAUAGUGAUACCAGCACAACAUGAGGAUCACCCAUGUCACAUAUGUUGUAAUAAUGCCCUUGGCAGCACUAUGCGUCAG [SSTheo B #2]	34.6	83.3	50.8	–	–
GGCACUCUGUAAGAUACCAGACGUCGGUGCUUACAUGAGGAUCACCCAUGUUGCUUUUUAGUCCCUUGGCAGCUUCGGAUAACCA [Oniste]	88.6	557	230	–	–
GGUCUCGAGAGCGAUACCAGCUUGAUCGUACUGGCCUGGUACAUGAGGAUCACCCAUGUAAGCCCUUGGCAGCGCUCUCGAGACC [#1 Exclusion - Theophylline B Attempt #7 (HarryS)]	9.53	15.6	14	11.4	30.1
GGGACAUGAGGAUCACCCAUGUACCGGUCCCGAGGACCGGUACGGCCGCCACUCGAUGACCUCAUAGUCUGCCUGAGCAGCAGAC [Abebeti]	49.1	96.6	–	–	140
UGCCUAAAGUCGGCCGCCACUGAUGGUAUCCUCUCCUCGAGGUCACACAUGAGGAUCACCCAUGUCAGGACCGGGACUAGUGAGA [theeternabot_exclusion_MS2_Trp_B_36]	7.11	9.65	–	–	7.48
ACCGCAUCCGUAUAGGAUGCGGCCCAUGAAGGAGCGUGGGAAACCACAGGUAGGUCGCAUGGACAUGAGGAUCACCCAUGUUAUU [Inception]	43.7	79.3	48.3	59.8	62.7
UGUAUGUGAUGGGAUACCAGACCAGCUGGUGAUACAUGAGGAUCACCCAUGUAAAUUUGGGUCCCUUGGCAGCCCAUCGCAUACU [SSTheo B #25]	32.4	68	23.9	22	63.7
ACAUUUAACUGAAGGAGCGUGAAUAACAUGAGGAUCACCCAUGUAACUUAGAUUCUUAUAUCACAGGUAGGUCGCAGACUAAUGA [JR_ExcArginiB_Sub012]	24.9	25.7	19	17	21.5
ACUAGAGGUGGAAGGAGCGGGAGACAUGAGGAUCACCCAUGUGAAGUUUCGAGAGGAUCAUCCCAGGUAGGUCGCCAUGUCGAAA [vvbvmullin]	35.3	46.9	43.7	27.4	61.6

Sequence	apparent KD of MS2 coat protein (input ligand: arginine 13.2 mM) [nM]	apparent KD of MS2 coat protein [1] [nM]	apparent KD of MS2 coat protein [2] [nM]	apparent KD of MS2 coat protein (input ligand: none) [nM]	apparent KD of MS2 coat protein [3] [nM]
GCACAAGAUGGAAGGAGCGCUGGUAUAAGUCACAUGAGGAUCACCCAUGUGCUCCUUGCCGAGCAGGUAGGUCGCCAUCUUGUGC [SSAB NP+V+V2 #5]	22.3	71	68.1	42	66.9
ACAUGAGGAUCACCCAUGUCAAGGCACGAUACCAGCUGAUCCCGUGGCCCUUGGCAGCGUCACGUUUGGUCCCGCGGAUGACACG [zczmullin]	38.4	111	86.9	–	–
GAUAGUUGAAGGGAUACCAGCCUGGACAUGAGGAUCACCCAUGUAGCGUGUUUGAAACUGGGCCCUUGGCAGCCCAUAUUGUGUA [Same State - Theophylline B / A]	16.3	17.6	15.2	–	–
CCCAGUCAUAGCAGGGCAAAUAUACUCGAAGGAGCGUCAUAGUAGGCAGGUAGGUCGCGAGACAUGAGGAUCACCCAUGUAGAGA [cccmullin]	33.6	67	44.8	52.3	44.2
UGUAUUACGAAAGUAGUACAUCGUGUUCGACGAGGACCGGUACGGCCGCCACUCGGACAUGAGGAUCACCCAUGUAGCGAAAGCU [Tryptophan A 25]	93.8	354	–	–	491
AUCAUAAUAGACUCGUUAGAUUAUAUGGAACGAGGACCGGUACGGCCGCCACUCGUGAUGUACAUGAGGAUCACCCAUGUUAGCU [JR_Nu_SSTryptoA_Sub025]	15.2	18.8	–	–	17
UGUAACAUGAGGAUCACCCAUGUGCACGAUACCAGCUUCGAAAGAGGCCCUUGGCAGCGUAUGCGUAAGCUGUAUAAUAUAUAUC [#28 SameState-TheophyllineA]	11.1	14.4	10.6	–	–
AGCCCUGUACUAGAUACCAGCUACAUGAGGAUCACCCAUGUGCGUCAAGACUGACUGUGUGGCCCUUGGCAGCUGCUCGCAUGUA [Exclusion - Theophylline B (Freestyle 1)]	50.6	191	168	–	–
AAAACCUCACCUGAGGAACACCCAGGUGAUACCAGCCUGGAAACAGGCCCUUGGCAGCACCAGGUCAUCAAAGAUGACCAAAUAA [TheoAX 25 #OpenEnded #AlternativeMS2]	17.5	40.7	21.3	22.7	595
GGUGGGAGCAACGAUACCAGCUACAUGAGGAUCACCCAUGUGGAAUGGGAGUCAACAGCGAGCCCUUGGCAGCGUUAGACCCAAA [Bebeeserdi]	13.2	20.4	11.6	11.3	128
GGGUGCGGCACGGCCGCCACUGCGGUGGUGUGACAUGAGGAUCACCCAUGUUGUCAUGCGGCCCUUAGGACCGGGUGCCGUGCCC [#1 Exclusion - Tryptophan B Attempt #13 (HarryS)]	39.5	60.9	43.8	33.7	62.4
CGGCCCUCACCUGAGGAUCACCCAGGUGAUACCAGCCUGGAAACAGGCCCUUGGCAGCACCAGGUCAUCAAAGAUGACCAAGCCG [TheoAX 23 #SwitchBubble]	9.35	15.2	10.9	10.5	128
ACAUGAGGGAUGGAUACCAGCGACAUGAGGAUCACCCAUGUAUGAGGAUCAGCCAUGUUAUGCCCUUGGCAGCCACGAACAUGAG [ACFMULLIN]	26.2	103	37.2	35.6	235
UAAUAUCACAUAUUAUGGGUGUAAUGUGAUACCAGCUAGGAAACUAGCCCUUGGCAGCACAUGAGGAUCACCCAUGUAAGCUGUA [(T1)'-(M)'-(T1)-(T2)-(M1)-(M2)-(T2)'_Design4_2/19/17]	29.1	123	68.9	–	–
GAGGAUCAAGUAGAUACCAGCACAUGAGGAUCACCCAUGUAAUGGUGUCCCUCAAGAACGUGCCCUUGGCAGCUACUAUCAAAAU [Enarbeer]	24.6	20.5	14.7	–	–
UAAUGUGAGAGAAGGAGCGGAAGUCUCGUUACAACAUGAGGAUCACCCAUGUAACGUACAGUCCAGGUAGGUCGCUCUCGGGCGC [pqacmullin]	16.9	21.4	15.5	14.8	18.1
GACCUUGCGGGCGCCCGCAAGGUUGCGGAUACCAGCGAGGUCCAUCGCCCUUGGCAGCCGAACAUGAGGAUCACCCAUGUCGGAC [Same State - Theophylline A Attempt #3 (HarryS)]	10.3	18.2	11.2	11.4	15.8
UGUAUGUGAUUUGAUACCAGACCAGCUGGUGUUACAAGAGGAUCACCCUUGUAGGUUUGGGUCCCUUGGCAGCAAAUCGCAUACU [SS Theo B #24 Ms4]	94.2	135	190	136	17.5
CAGGUUAGGGCGGCCGCCACUGUGGCUACGGUACAUGAGGAUCACCCAUGUUUGUGGUUGAUCUACAGGACCGGGCCCUGACACG [Matidier]	48.9	145	272	236	665
